{"source": "patent US11020478B2", "about": "“Methods for modulating angiogenesis of cancers refractory to anti-VEGF treatment” (INIS BIOTECH LLC, priority 2013, dated 2021)", "molecules": {"B1": {"name": "Clone 21: fully human anti-Gal1 monoclonal antibody (IgG1) from scFv library; VH SEQ ID NO: 15, VK SEQ ID NO: 19 (antibody, V domains shown)", "VH": "EVQLLESGGGLVQPGGSLRLSCAASGFTFSSYAMSWVRQAPGKGLEWVSEIGRVGVNTLYADSVKGRFTISRDNSKNTLYLQMNSLRAEDTAVYYCAKKATQFDYWGQGTLVTVSS", "VL": "DIQMTQSPSSLSASVGDRVTITCRASQSISSYLNWYQQKPGKAPKLLIYRASRLQSGVPSRFSGSGSGTDFTLTISSLQPEDFATYYCQQTIGPPDTFGQGTKVEIKR", "modifications": "IgG1 format"}, "B2": {"name": "Clone 42: fully human anti-Gal1 monoclonal antibody (IgG1) from scFv library; VH SEQ ID NO: 23, VK SEQ ID NO: 27 (antibody, V domains shown)", "VH": "EVQLLESGGGLVQPGGSLRLSCAASGFTFSSYAMSWVRQAPGKGLEWVSGISGSGDYTSYADSVKGRFTISRDNSKNTLYLQMNSLRAEDTAVYYCAKGYGAFDYWGQGTLVTVSS", "VL": "B1 VL with R50G, R53W, T91S, I92A, G93N, P94Y, D96S", "modifications": "IgG1 format"}}, "key": {"HUVEC": {"system": "HUVEC", "assay": "Binding of 488-Gal1 to ECs (flow cytometry)", "assay_type": "cell-based, human"}, "rhVEGFR2": {"target": "T1, rhVEGFR2 (Homo sapiens, UniProt P35968)", "T1 construct": "the recombinant extracellular domain of VEGFR2 expressed in human cells (Sino Biological Inc.); purchased Sino Biological Inc; host or cells: human cells", "T1 sequence (P35968 20-764 limits assumed)": "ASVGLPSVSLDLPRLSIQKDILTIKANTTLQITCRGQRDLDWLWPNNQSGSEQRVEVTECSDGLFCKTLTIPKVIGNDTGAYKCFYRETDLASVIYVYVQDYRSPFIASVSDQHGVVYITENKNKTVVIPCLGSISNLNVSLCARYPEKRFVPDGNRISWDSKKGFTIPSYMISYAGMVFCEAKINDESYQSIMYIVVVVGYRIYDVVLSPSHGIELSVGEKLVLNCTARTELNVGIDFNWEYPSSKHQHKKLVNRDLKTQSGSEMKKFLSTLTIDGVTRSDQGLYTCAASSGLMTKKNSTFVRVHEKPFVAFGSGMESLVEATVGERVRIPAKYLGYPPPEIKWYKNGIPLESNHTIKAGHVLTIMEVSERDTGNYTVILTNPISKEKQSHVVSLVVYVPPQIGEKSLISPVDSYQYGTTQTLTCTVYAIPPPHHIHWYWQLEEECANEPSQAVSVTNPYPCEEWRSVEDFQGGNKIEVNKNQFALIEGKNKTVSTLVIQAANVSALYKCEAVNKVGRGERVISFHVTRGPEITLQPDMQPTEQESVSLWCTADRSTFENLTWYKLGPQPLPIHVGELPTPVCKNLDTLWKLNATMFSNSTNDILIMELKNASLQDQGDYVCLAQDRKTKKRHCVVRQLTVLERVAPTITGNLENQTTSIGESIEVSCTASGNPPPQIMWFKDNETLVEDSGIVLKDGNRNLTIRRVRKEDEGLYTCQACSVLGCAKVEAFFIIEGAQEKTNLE", "assay": "FRET-based fluorescence spectroscopy, Gal1 binding to rhVEGFR2", "details": "594-Gal1 added to 0.5 μM 488-VEGFR2, 25° C.", "protocol": "Association between rhVEGFR2 and Gal1 was studied by a FRET-based fluorescence spectroscopy approach. NHS-activated fluorophores DyLight 488 (DL488, FRET donor) and DyLight 594 (DL594, FRET acceptor) were purchased from Thermo Scientific. For labeling, 4 mg rhGal1 and 100 μg of the recombinant extracellular domain of VEGFR2 expressed in human cells (Sino Biological Inc.) were modified with 200 μg of DL594 and 50 μg of DL488, respectively. Labeling was carried out in PBS buffer in the presence of 5 mM dithiothreitol (DTT) for 1 hour at room temperature following manufacturer's recommended protocol (Thermo Scientific). Labeled rhGal1 was purified by size exclusion chromatography using a Superdex-75 column (GE Life Sciences) generated in PBS containing 5 mM DTT and concentrated up to 200 μM using Centricon tubes (Millipore). Labeled VEGFR2 was dialyzed for 48 hours against PBS using a homemade microdialyzer. Fluorescence spectra were measured in a JASCO FP-6500 spectrofluorometer endowed with a Peltier effect thermostatized cell holder. A 4×4 mm fluorescence cell was employed. All binding assays were carried out at 25° C. in PBS buffer with the addition of 5 mM DTT. Excitation wavelength was set to 493 nm, with a bandpass of 1 nm. Emission spectra were recorded from 500 to 680 nm, using a bandpass of 3 nm. […] Fluorescence intensity at 518 nm was corrected for dilution and inner filter effects."}, "ECs": {"system": "ECs", "assay": "EC proliferation assay ([3H]-thymidine)", "assay_type": "cell-based, human", "protocol": "(§1) Cells were incubated at 37° C. for periods ranging from 0 to 24 h and were visualized by phase-contrast microscopy. Capillary-like tubular structures were scored by counting the number of tubules (closed areas) per well in a phase-contrast microscope (Nikon E-100). For migration assays, ECs (4×10^4/well) transfected or not with specific siRNA were resuspended in M199 medium supplemented with 1% FCS. Cells were placed into the top chamber of the insert while the bottom well was filled with Gal1 or VEGF-A in the absence or presence of the above mentioned stimuli. After 24 hours, inserts were stained with crystal violet (Sigma) and analyzed in an inverted microscope. For each filter, 4 images were obtained and cells were counted with ImageJ software v1.46r (NIH). […] After 24 hours, cells were incubated in the presence of 0.8 μCi [^3H]-thymidine (NEN Dupont). Cells were then harvested and radioactivity was measured in a 1414 Liquid Scintillation Counter (Perkin Elmer). Tumor-associated ECs were identified by flow cytometry using Alexa Fluor 647-conjugated anti-CD34 (RAM34; eBioscience) and FITC-conjugated anti-CD45 (J33; Immunotech). Microvessel density (MVD) was determined by counting the number of CD31^+ microvessels present in 10 mm^2. Ten random 400× fields were counted."}, "HUVEC tube formation": {"system": "HUVEC tube formation", "assay": "Capillary-like tube formation on Matrigel (HUVEC)", "assay_type": "cell-based, human", "details": "for tube formation induced by Gal1 / inhibitory activity in Gal1-induced formation of tubular structures (tubulogenesis): HUVEC", "protocol": "as §1"}, "HUVEC migration": {"system": "HUVEC migration", "assay": "EC migration assay (HUVEC)", "assay_type": "cell-based, human", "set-up": "inhibitory activity in Gal1-induced cell migration: dose or concentration left out as unconfirmed", "protocol": "as §1"}, "[1]": {"system": "Gal1 peptides with the consensus motif MAADGDF", "assay": "PEPperMAP Conformational Epitope Mapping Analysis", "assay_type": "binding", "details": "antibody 10 μg/mL; all three peptide lengths", "protocol": "Epitope mapping: In order to determine the specific conformational epitopes recognized by the new anti-Gal1 antibodies, a PEPperMAP® Conformational Epitope Mapping Analysis was performed."}, "human recombinant Gal-1": {"target": "T2, human recombinant Gal-1 (Homo sapiens, UniProt P09382)", "T2 construct": "made in house", "assay": "Affinity assay (SPR) of fully human anti-Gal1 monoclonal antibodies", "assay_type": "binding", "details": "for Ka: kinetics model of interaction adjustment 1:1, BIAEvaluation 3.0", "from_the_text": "Also conducted was an affinity assay (SPR) for the newly developed fully human anti-Gal1 monoclonal antibodies. In order to characterize affinities of the new anti-Gal-1 monoclonal antibodies, dose-response (RU) curves were collected of the interactions between the monoclonal antibodies and human recombinant Gal-1 (FIG. 14A and FIG. 14B).\nBy using the BIAEvaluation 3.0 software in a kinetics model of interaction adjustment 1:1, kinetic parameters, constants of dissociation (Kd) and affinity (Ka) were calculated."}}, "note": "Where a chain is given by its changes, count along the chain named.", "data": [{"molecule": "CC(=O)N[C@H]1[C@@H](OCc2ccccc2)O[C@H](CO)[C@H](O)[C@@H]1O", "note": "[benzyl-α-GalNAc]", "values": [{"measurement": "Gal1 binding to ECs in presence of inhibitor", "setting": "HUVEC", "result": "only partially inhibitory"}]}, {"molecule": "Gal1: recombinant Galectin-1, glycan-binding protein (SEQ ID NO: 2)", "values": [{"measurement": "dissociation constant (Kd)", "setting": "rhVEGFR2", "result": "low micromolar range"}]}, {"molecule": "O[C@H]1[C@H]2[C@H](O)CCCN2C[C@H]1O", "note": "[swainsonine, reference compound]", "values": [{"measurement": "EC proliferation induced by Gal1", "setting": "ECs", "result": "almost completely prevented"}, {"measurement": "tube formation induced by Gal1", "setting": "HUVEC tube formation", "result": "almost completely prevented"}, {"measurement": "Gal1 binding to ECs in presence of inhibitor", "setting": "HUVEC", "result": "almost completely abrogated"}, {"measurement": "EC migration induced by Gal1", "setting": "HUVEC migration", "result": "almost completely prevented"}]}, {"molecule": "Gal1^N46D: Gal1 mutant lacking carbohydrate-binding activity [reference compound]", "values": [{"measurement": "impact on EC response", "setting": "HUVEC tube formation", "result": "no impact"}, {"measurement": "binding to ECs", "setting": "HUVEC; any of the concentrations tested", "result": "no binding"}]}, {"molecule": "OC[C@H]1O[C@@H](O[C@H]2[C@H](O)[C@@H](O)C(O)O[C@@H]2CO)[C@H](O)[C@@H](O)[C@H]1O", "note": "(stereo partly drawn) [lactose, reference compound]", "values": [{"measurement": "EC proliferation induced by Gal1", "setting": "ECs", "result": "almost completely prevented"}, {"measurement": "tube formation induced by Gal1", "setting": "HUVEC tube formation", "result": "almost completely prevented"}, {"measurement": "EC migration induced by Gal1", "setting": "HUVEC migration", "result": "almost completely prevented"}]}, {"molecule": "B1", "values": [{"measurement": "binding activity against epitope-like spots formed by adjacent peptides with consensus motif MAADGDF", "setting": "[1]", "result": "moderate to high binding activity"}, {"measurement": "inhibitory activity in Gal1-induced formation of tubular structures (tubulogenesis)", "setting": "HUVEC tube formation", "result": "significantly blocked"}, {"measurement": "interaction with human recombinant Gal1", "setting": "human recombinant Gal-1", "result": "high specific interactions"}, {"measurement": "Ka", "setting": "human recombinant Gal-1", "result": 649000, "unit": "M⁻¹"}, {"measurement": "inhibitory activity in Gal1-induced cell migration", "setting": "HUVEC migration", "result": "significantly blocked"}]}, {"molecule": "B2", "values": [{"measurement": "binding activity against epitope-like spots formed by adjacent peptides with consensus motif MAADGDF", "setting": "[1]", "result": "higher binding activity"}, {"measurement": "inhibitory activity in Gal1-induced formation of tubular structures (tubulogenesis)", "setting": "HUVEC tube formation", "result": "significantly blocked"}, {"measurement": "interaction with human recombinant Gal1", "setting": "human recombinant Gal-1", "result": "high specific interactions"}, {"measurement": "Ka", "setting": "human recombinant Gal-1", "result": "7.63e+06", "unit": "M⁻¹"}, {"measurement": "inhibitory activity in Gal1-induced cell migration", "setting": "HUVEC migration", "result": "significantly blocked"}]}]}
